These results are taken from paper PMC11449445, “Fission yeast Duc1 links to ER–PM contact sites and influences PM lipid composition and cytokinetic ring anchoring” (Journal of Cell Science, 2024).

Test [1] addresses T1, His6–Scs2(1–127) (Schizosaccharomyces pombe (strain 972 / …, UniProt O60119)).
T1 chain: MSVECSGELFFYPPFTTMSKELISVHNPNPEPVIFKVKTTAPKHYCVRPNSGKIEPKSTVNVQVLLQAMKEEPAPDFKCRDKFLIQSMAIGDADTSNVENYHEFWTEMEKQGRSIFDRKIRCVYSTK
Description: pull-down (bead-bound His6-Scs2, Coomassie SDS-PAGE).

The target of test [2] is T2, His6–Scs2(1–127) (S. pombe, UniProt O60119 1-127).
T2 construct: Scs2 (VAMP-associated protein, VAP), S. pombe, residues 1-127 (MSP domain), amplified from genomic DNA and cloned into pET15b; Cloned into the NdeI and BamHI sites of pET15b; also called Scs2 MSP domain; His-tagged version of the Scs2 MSP domain
T2 sequence (looked up): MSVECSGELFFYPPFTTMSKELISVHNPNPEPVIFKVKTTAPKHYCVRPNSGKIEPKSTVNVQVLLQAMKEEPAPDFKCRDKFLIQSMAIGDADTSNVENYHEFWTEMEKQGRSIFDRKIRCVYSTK
Kind of test: pull-down; bead-bound His6–Scs2(1–127) (2–3 µg) incubated with 10 µg GST or GST–Duc1(351–380) in 500 µl 20 mM Tris-HCl pH 7.4, 150 mM NaCl, 0.1% NP-40, 30 min at 4°C; three washes; SDS-PAGE, Coomassie blue. To be noted: both partners purified.

B1: GST–Duc1(351–380) (domain or fragment, S. pombe, UniProt O74504 351-380, looked up)
chain: GKDVYKHGISNVPDDENEDDLQRYFTALEM
For B1, the binding result in test [1] and in test [2] was “binds” throughout.
